These are literature values, as cited in article PMC12730246.

This series has as its target TKS4 peptide (Homo sapiens) (UniProt A1X283).

What is called Kd is the equilibrium constant for the complex coming apart. Consider “TKS4 tandem SH3 tandem SH3 (from UniProt A1X283)”, for which the Kd was 12 µM.
